In US20230357429A1 (JANUX THERAPEUTICS, published 2023):
Like-named read-outs stand apart in the source and are kept apart here. One block for each binder: values may come before it. Where no end group is shown, it is not given here.

Key:
[1] = molecular target: T1, TCE-37 (anti-CD3 scFv F104A; anti-TROP2 F108A); assay: competition ELISA, TCE on captured CD3
T1 construct: scFv on the Fab heavy chain

TBD-1 wt = molecular target: T2, TBD-1 wt; assay: competition ELISA: peptide titrated and pre-incubated with a constant concentration of TBD-1, then added to plate-bound biotinylated TROP2; blocked ligand TROP2 (2.m7)
T2 construct: Fab; the heavy chain entry is VH-CH1; also called wild-type anti-TROP2 Fab (hRS7); TROP2 Fab

[2] = molecular target: T3, Human TROP2 ECD (31-274 AA), biotinylated (human, UniProt P09758 31-274, biotinylated (site not stated)); assay: ELISA on immobilized TROP2
T3 construct: also called tumor-associated calcium signal transducer 2; Human TROP2-biotin
T3 sequence: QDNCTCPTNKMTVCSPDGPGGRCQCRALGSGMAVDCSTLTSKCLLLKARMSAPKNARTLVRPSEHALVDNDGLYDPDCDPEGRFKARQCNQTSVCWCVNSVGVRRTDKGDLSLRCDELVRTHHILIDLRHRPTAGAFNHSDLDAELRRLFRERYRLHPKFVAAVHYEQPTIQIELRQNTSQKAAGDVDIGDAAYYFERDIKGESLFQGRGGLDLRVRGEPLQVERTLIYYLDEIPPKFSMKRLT

[3] = molecular target: T3, Human TROP2 ECD (31-274 AA), …; assay: ELISA on immobilized TROP2; remark: listed apart in the source
[4] = molecular target: T3, Human TROP2 ECD (31-274 AA), …; assay: ELISA on immobilized TROP2; remark: listed apart in the source
[5] = molecular target: T3, Human TROP2 ECD (31-274 AA), …; assay: ELISA on immobilized TROP2; remark: listed apart in the source
[6] = molecular target: T4, CD3 (biotinylated CD3 antigen) (human, UniProt P07766 23-126, limits assumed, biotinylated (site not stated)); assay: ELISA: biotinylated CD3 captured on neutravidin plates, TCE titrated, HRP secondary antibody
T4 construct: also called CD3ε; human CD3

[7] = molecular target: T3, Human TROP2 ECD (31-274 AA), …; assay: ELISA on immobilized TROP2; remark: listed apart in the source
[8] = molecular target: T3, Human TROP2 ECD (31-274 AA), …; assay: ELISA on immobilized TROP2; remark: listed apart in the source
[9] = molecular target: T3, Human TROP2 ECD (31-274 AA), …; assay: ELISA on immobilized TROP2; remark: listed apart in the source
Human TROP2 Full length = molecular target: T5, Human TROP2 Full length (human, UniProt P09758 31-323); assay: cell-based or functional assay
T5 sequence: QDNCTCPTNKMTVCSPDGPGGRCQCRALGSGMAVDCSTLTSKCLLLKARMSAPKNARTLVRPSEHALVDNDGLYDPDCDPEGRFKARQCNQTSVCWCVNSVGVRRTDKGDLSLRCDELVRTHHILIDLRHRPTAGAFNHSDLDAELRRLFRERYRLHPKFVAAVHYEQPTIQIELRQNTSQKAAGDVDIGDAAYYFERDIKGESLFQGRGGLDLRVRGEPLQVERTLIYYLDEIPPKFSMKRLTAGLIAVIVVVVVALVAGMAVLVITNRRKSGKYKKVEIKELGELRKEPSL

Cyno TROP2 Full length = molecular target: T6, Cyno TROP2 Full length (cynomolgus monkey, UniProt P09758 31-323 (human entry)); assay: cell-based or functional assay
T6 chain: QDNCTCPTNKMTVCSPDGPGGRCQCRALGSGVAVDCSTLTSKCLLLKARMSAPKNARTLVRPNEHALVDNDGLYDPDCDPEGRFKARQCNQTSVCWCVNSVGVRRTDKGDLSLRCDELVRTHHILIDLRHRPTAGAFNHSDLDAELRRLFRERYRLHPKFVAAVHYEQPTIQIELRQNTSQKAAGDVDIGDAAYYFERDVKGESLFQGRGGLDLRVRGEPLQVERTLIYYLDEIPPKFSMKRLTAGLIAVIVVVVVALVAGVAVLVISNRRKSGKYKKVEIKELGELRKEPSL

[10] = molecular target: T3, Human TROP2 ECD (31-274 AA), …; assay: ELISA on immobilized TROP2; remark: listed apart in the source

- IC50 [1]: 8870 nM
Binder: YLCGPDTDETLACY (cysteine pairing not given here; also: biotinylated, site not given here, mask peptide for the CD3 scFv) [Peptide-77]

- binding result (TBD-1 wt): binds
Binder: VDFCYLYNWPVCSK [Peptide-9]

- EC50 [2]: 926 nM
B1: PC-17 (bispecific antibody)
light: not shown
heavy: GGIDFCAIYQWPVCRSGGGGSGGLSGRSDAGSPLGLAGSGGSQVQLQQSGSELKKPGASVKVSCKASGYTFTNYGMNWVKQAPGQGLKWMGWINTYTGEPTYTDDFKGRFAFSLDTSVSTAYLQISSLKADDTAVYFCARGGFGSSYWYFAVWGQGSLVTVSSASTKGPSVFPLAPSSKSTSGGTAALGCLVKDYFPEPVTVSWNSGALTSGVHTFPAVLQSSGLYSLSSVVTVPSSSLGTQTYICNVNHKPSNTKVDKKVEPKSC
notes: anti-TROP2 D109A

- EC50 [3]: 214 nM
B2: PC-27 (bispecific antibody)
light: not shown
heavy: GGVDFCAIYSWPICKIGGGGSGGLSGRSDAGSPLGLAGSGGSQVQLQQSGSELKKPGASVKVSCKASGYTFTNYGMNWVKQAPGQGLKWMGWINTYTGEPTYTDDFKGRFAFSLDTSVSTAYLQISSLKADDTAVYFCARGGFGSSYWYFAVWGQGSLVTVSSASTKGPSVFPLAPSSKSTSGGTAALGCLVKDYFPEPVTVSWNSGALTSGVHTFPAVLQSSGLYSLSSVVTVPSSSLGTQTYICNVNHKPSNTKVDKKVEPKSC
notes: anti-TROP2 D109A

- EC50 [3]: 168 nM
B3: PC-21 (bispecific antibody)
light: not shown
heavy: GGVDFCALYHWPICYQGGGGSGGLSGRSDAGSPLGLAGSGGSQVQLQQSGSELKKPGASVKVSCKASGYTFTNYGMNWVKQAPGQGLKWMGWINTYTGEPTYTDDFKGRFAFSLDTSVSTAYLQISSLKADDTAVYFCARGGFGSSYWYFAVWGQGSLVTVSSASTKGPSVFPLAPSSKSTSGGTAALGCLVKDYFPEPVTVSWNSGALTSGVHTFPAVLQSSGLYSLSSVVTVPSSSLGTQTYICNVNHKPSNTKVDKKVEPKSC
notes: anti-TROP2 D109A

- EC50 [4]: 0.07 nM
- EC50 [2]: 1.29 nM
- EC50 [5]: 0.06 nM
B4: TCE-1 (TROP2 T cell engager, anti-CD3 scFv wt, anti-TROP2 wt) (bispecific antibody)
light: DIQLTQSPSSLSASVGDRVSITCKASQDVSIAVAWYQQKPGKAPKLLIYSASYRYTGVPDRFSGSGSGTDFTLTISSLQPEDFAVYYCQQHYITPLTFGAGTKVEIKRTVAAPSVFIFPPSDEQLKSGTASVVCLLNNFYPREAKVQWKVDNALQSGNSQESVTEQDSKDSTYSLSSTLTLSKADYEKHKVYACEVTHQGLSSPVTKSFNRGEC
heavy: not shown
notes: Anti-CD3 scFv joined to the N-terminus of the anti-TROP2 Fab heavy chain; the heavy entry holds scFv, linker and Fab heavy chain; also called TCE-1 (wt)

- EC50 [6]: 0.171 nM
B5: TCE-35 (anti-CD3 scFv N30Q, I109V, G172A, V231A; anti-TROP2 wt) (bispecific antibody)
light: DIQLTQSPSSLSASVGDRVSITCKASQDVSIAVAWYQQKPGKAPKLLIYSASYRYTGVPDRFSGSGSGTDFTLTISSLQPEDFAVYYCQQHYITPLTFGAGTKVEIKRTVAAPSVFIFPPSDEQLKSGTASVVCLLNNFYPREAKVQWKVDNALQSGNSQESVTEQDSKDSTYSLSSTLTLSKADYEKHKVYACEVTHQGLSSPVTKSFNRGEC
heavy: not shown
notes: scFv on the Fab heavy chain

- EC50 [7]: 0.57 nM
- EC50 [8]: 0.2 nM
- EC50 [9]: 0.16 nM
B6: TCE-8 (anti-CD3 scFv wt; anti-TROP2 D109A) (bispecific antibody)
light: DIQLTQSPSSLSASVGDRVSITCKASQDVSIAVAWYQQKPGKAPKLLIYSASYRYTGVPDRFSGSGSGTDFTLTISSLQPEDFAVYYCQQHYITPLTFGAGTKVEIKRTVAAPSVFIFPPSDEQLKSGTASVVCLLNNFYPREAKVQWKVDNALQSGNSQESVTEQDSKDSTYSLSSTLTLSKADYEKHKVYACEVTHQGLSSPVTKSFNRGEC
heavy: not shown
notes: scFv on the Fab heavy chain

- binding result (TBD-1 wt): binds
Binder: LDFCKLYQWPVCFT [Peptide-15]

- binding result (TBD-1 wt): binds
Binder: VDFCALYNWPVCET [Peptide-11]

- CyTROP2 HEK293 EC50 (pM) (Cyno TROP2 Full length): 3450 pM
- EC50 [7]: 187 nM
- EC50 [8]: 86 nM
- EC50 [9]: 165 nM
B7: PC-8 (bispecific antibody)
light: GGVDFCGLYHWPICYQGGGGSGGLSGRSDAGSPLGLAGSGGSDIQLTQSPSSLSASVGDRVSITCKASQDVSIAVAWYQQKPGKAPKLLIYSASYRYTGVPDRFSGSGSGTDFTLTISSLQPEDFAVYYCQQHYITPLTFGAGTKVEIKRTVAAPSVFIFPPSDEQLKSGTASVVCLLNNFYPREAKVQWKVDNALQSGNSQESVTEQDSKDSTYSLSSTLTLSKADYEKHKVYACEVTHQGLSSPVTKSFNRGEC
heavy: not shown
notes: Masked polypeptide complex: anti-TROP2 D109A, anti-CD3 wt
- H292 Cytotoxicity EC50 (pM) (Human TROP2 Full length): 14600 pM
- HCT116 Cytotoxicity EC50 (pM) (Human TROP2 Full length): > 100000 pM

- EC50 [9]: 151 nM
B8: PC-30 (bispecific antibody)
light: GGVDFCGLYHWPICYQGGGGSGGLSGRSDAGSPLGLAGSGGSDIQLTQSPSSLSASVGDRVSITCKASQDVSIAVAWYQQKPGKAPKLLIYSASYRYTGVPDRFSGSGSGTDFTLTISSLQPEDFAVYYCQQHYITPLTFGAGTKVEIKRTVAAPSVFIFPPSDEQLKSGTASVVCLLNNFYPREAKVQWKVDNALQSGNSQESVTEQDSKDSTYSLSSTLTLSKADYEKHKVYACEVTHQGLSSPVTKSFNRGEC
heavy: not shown
notes: anti-TROP2 D109A

- EC50 [10]: 78.5 nM
B9: PC-2 (bispecific antibody)
light: GGIDFCMLYNWPICAGGGGGSSGGSAAGLLAPPGGLSGRSDAGGGGSDIQLTQSPSSLSASVGDRVSITCKASQDVSIAVAWYQQKPGKAPKLLIYSASYRYTGVPDRFSGSGSGTDFTLTISSLQPEDFAVYYCQQHYITPLTFGAGTKVEIKRTVAAPSVFIFPPSDEQLKSGTASVVCLLNNFYPREAKVQWKVDNALQSGNSQESVTEQDSKDSTYSLSSTLTLSKADYEKHKVYACEVTHQGLSSPVTKSFNRGEC
heavy: not shown
notes: anti-TROP2 wt

- EC50 [10]: 64.6 nM
B10: PC-3 (bispecific antibody)
light: GGVDFCKIYSWPVCHQGGGGSSGGSAAGLLAPPGGLSGRSDAGGGGSDIQLTQSPSSLSASVGDRVSITCKASQDVSIAVAWYQQKPGKAPKLLIYSASYRYTGVPDRFSGSGSGTDFTLTISSLQPEDFAVYYCQQHYITPLTFGAGTKVEIKRTVAAPSVFIFPPSDEQLKSGTASVVCLLNNFYPREAKVQWKVDNALQSGNSQESVTEQDSKDSTYSLSSTLTLSKADYEKHKVYACEVTHQGLSSPVTKSFNRGEC
heavy: not shown
notes: anti-TROP2 wt

- EC50 [10]: 32.8 nM
B11: PC-4 (bispecific antibody)
light: not shown
heavy: GGIDFCMLYNWPICAGGGGGSSGGSAAGLLAPPGGLSGRSDAGGGGSQVQLQQSGSELKKPGASVKVSCKASGYTFTNYGMNWVKQAPGQGLKWMGWINTYTGEPTYTDDFKGRFAFSLDTSVSTAYLQISSLKADDTAVYFCARGGFGSSYWYFDVWGQGSLVTVSSASTKGPSVFPLAPSSKSTSGGTAALGCLVKDYFPEPVTVSWNSGALTSGVHTFPAVLQSSGLYSLSSVVTVPSSSLGTQTYICNVNHKPSNTKVDKKVEPKSC
notes: anti-TROP2 wt

- EC50 [7]: 1.43 nM
- EC50 [3]: 0.59 nM
- EC50 [2]: 20.9 nM
B12: TCE-5 (bispecific antibody)
light: not shown
heavy: QVQLQQSGSELKKPGASVKVSCKASGYTFTNYGMNWVKQAPGQGLKWMGWINTYTGEPTYTDDFKGRFAFSLDTSVSTAYLQISSLKADDTAVYFCARGGFGSSYWYFAVWGQGSLVTVSSASTKGPSVFPLAPSSKSTSGGTAALGCLVKDYFPEPVTVSWNSGALTSGVHTFPAVLQSSGLYSLSSVVTVPSSSLGTQTYICNVNHKPSNTKVDKKVEPKSC
